Square brackets hold non-standard residues; d marks the D form. Primed or numbered codes have the meaning given here. Ends that are not written are not given here. PEG4″ = 4-unit polyethylene glycol spacer; PEG8″ = 8-unit polyethylene glycol spacer
Key:
Experiment in all cases: cell-based or functional assay
type A insulin receptor = type A insulin receptor (UniProt P06213)
type B insulin receptor = type B insulin receptor (UniProt P06213)
[1] = molecular target: type A insulin receptor, P06213
[2] = molecular target: type B insulin receptor, P06213
[3] = molecular target: human IGF-1 receptor (human) (UniProt P08069)

B1: MIU-78 mono-20K-TC: B1-20K B^1(H5,10Y16L17K29)29:A^1(H8N18,21) (ligand)
chain 1: GPEHLCGAHLVDALYLVCGDRGFYFNKK
chain 2: GIVDECCHRSCDLRRLENYCN
**Q.** How did the % activity in vitro (type A insulin receptor) turn out when B1 was run?
**A.** Its % activity in vitro is 8.2%.

**Q.** And the % activity in vitro (type B insulin receptor)?
**A.** Its % activity in vitro is 3.2%.

B2: MIU-56: C8-PEG20K B^1(H5,Y16,L17)25-PEG8-K-PEG4-A^1(N18,N21) (ligand)
chain: Ac-GPEHLCGAELVDALYLVCGDRGFY[PEG8″]K(PEG 20 kDa)[PEG4″]GIVDECCFRSCDLRRLENYCN
modifications: cysteine pairing not given here
**Q.** With B2 as the binder, how does the % Insulin Activity (in vitro, assay not named) [1] read?
**A.** The % Insulin Activity (in vitro, assay not named) was 14.8%.

**Q.** And the Phosphorylation (EC50), % IR-A [1]?
**A.** The Phosphorylation (EC50), % IR-A was 14.8%.

**Q.** And the Phosphorylation (EC50), % IR-B [2]?
**A.** The Phosphorylation (EC50), % IR-B was 2%.

B3: MIU-57: B1-PEG20K MIU-35 (ligand)
chain: {PEG 20 kDa}-GPEHLCGAHLVDALYLVCGDRGFYGYGSSSRRAPQTGIVDECCHRSCDLRRLENYCN
modifications: ends and bridges not checked
**Q.** Which results are given for B3?
**A.** % (potency at the receptor, assay not named) [1]: 4.5%; % Insulin Activity (in vitro, assay not named) [1]: 3.1%; Phosphorylation (EC50), % IR-A [1]: 4.5%; % (potency at the receptor, assay not named) [2]: 1.1%; % Insulin Activity (in vitro, assay not named) [2]: 1.1%; Phosphorylation (EC50), % IR-B [2]: 1.1%

B4: di-10K-TC: B1,A14-10K B^1(H5,10Y16L17R29)29:A^1(H8K14N18,21) (ligand)
chain 1: {PEG 10 kDa}-GPEHLCGAHLVDALYLVCGDRGFYFNKR
chain 2: GIVDECCHRSCDLK(PEG 10 kDa)RLENYCN
modifications: ends and bridges not checked
**Q.** What does the source list for B4?
**A.** % activity in vitro [1]: 6.4%; % activity in vitro [2]: 2.1%

B5: MIU-43 DP8Mut3: B^1(H5,10Y16L17R29)30-C^1des9-12-A^1(H8,N18,21) (ligand)
chain: GPEHLCGAHLVDALYLVCGDRGFYFNKRTGYGSSSRRGIVDECCHRSCDLRRLENYCN
**Q.** For B5, which % activity in vitro [1] is on record?
**A.** The % activity in vitro was 97.5%.

**Q.** What about the % activity in vitro [2] of the same binder?
**A.** Its % activity in vitro is 16.7%.

B6: DP8Mut3KA14: B^1(H5,10Y16L17R29)30-C^1des9-12-A^1(H8,K14,N18,21) (ligand)
chain: GPEHLCGAHLVDALYLVCGDRGFYFNKRTGYGSSSRRGIVDECCHRSCDLKRLENYCN
**Q.** Which results are given for B6?
**A.** % activity in vitro [1]: 132%; % activity in vitro [2]: 12.6%

B7: DP3(TC): B^1(H5,10Y16L17K29)29:A^1(H8,N18,21) (ligand)
chain 1: GPEHLCGAHLVDALYLVCGDRGFYFNKK
chain 2: GIVDECCHRSCDLRRLENYCN
**Q.** B7 was tested. Which % activity in vitro [1] did it give?
**A.** The % activity in vitro was 160%.

**Q.** What about the % activity in vitro [2] of the same binder?
**A.** Its % activity in vitro is 33.1%.

B8: MIU-35: B^1(H5,10Y16L17)25-C^1-A^1(H8N18,21) (ligand)
chain: GPEHLCGAHLVDALYLVCGDRGFYGYGSSSRRAPQTGIVDECCHRSCDLRRLENYCN
**Q.** How did the % (potency at the receptor, assay not named) [3] turn out when B8 was run?
**A.** The % (potency at the receptor, assay not named) was 3.2%.

**Q.** What about the % Insulin Activity (in vitro, assay not named) [3] of the same binder?
**A.** Its % Insulin Activity (in vitro, assay not named) is 3.2%.

**Q.** What about the % (potency at the receptor, assay not named) (type A insulin receptor) of the same binder?
**A.** The % (potency at the receptor, assay not named) was 61.4%.

**Q.** What about the % Insulin Activity (in vitro, assay not named) (type A insulin receptor) of the same binder?
**A.** Its % Insulin Activity (in vitro, assay not named) is 61.4%.

**Q.** What about the % (potency at the receptor, assay not named) (type B insulin receptor) of the same binder?
**A.** The % (potency at the receptor, assay not named) was 17.4%.

**Q.** What about the % Insulin Activity (in vitro, assay not named) (type B insulin receptor) of the same binder?
**A.** Its % Insulin Activity (in vitro, assay not named) is 17.4%.

B9: B^1(A5H10Y16L17)25-C^1-A^1(H8N18N21) (ligand)
chain: GPEALCGAHLVDALYLVCGDRGFYGYGSSSRRAPQTGIVDECCHRSCDLRRLENYCN
**Q.** With B9 as the binder, how does the % (potency at the receptor, assay not named) [3] read?
**A.** The % (potency at the receptor, assay not named) was 2.5%.

**Q.** And the % (potency at the receptor, assay not named) (type B insulin receptor)?
**A.** Its % (potency at the receptor, assay not named) is 5.7%.

B10: B^1(H5,10Y16L17)25-C^1-A^1(T8N18,21) (ligand)
chain: GPEHLCGAHLVDALYLVCGDRGFYGYGSSSRRAPQTGIVDECCTRSCDLRRLENYCN
**Q.** Which results are given for B10?
**A.** % (potency at the receptor, assay not named) [1]: 20.4%; % (potency at the receptor, assay not named) [2]: 8.4%

B11: B^1(H5,10Y16L17A24)25-C^1-A^1(H8N18,N21) (ligand)
chain: GPEHLCGAHLVDALYLVCGDRGAYGYGSSSRRAPQTGIVDECCHRSCDLRRLENYCN
**Q.** With B11 as the binder, how does the % (potency at the receptor, assay not named) [3] read?
**A.** The % (potency at the receptor, assay not named) was 0.3%.

**Q.** What about the % (potency at the receptor, assay not named) (type A insulin receptor) of the same binder?
**A.** Its % (potency at the receptor, assay not named) is 0.1%.

**Q.** What about the % (potency at the receptor, assay not named) (type B insulin receptor) of the same binder?
**A.** The % (potency at the receptor, assay not named) was 0.4%.

B12: GE5W-B^1(A5H10Y16L17)25-C^1-A^1(H8N18N21) (ligand)
chain: GEEEEEWGPEALCGAHLVDALYLVCGDRGFYGYGSSSRRAPQTGIVDECCHRSCDLRRLENYCN
**Q.** What does the source list for B12?
**A.** % (potency at the receptor, assay not named) [3]: 0.3%; % (potency at the receptor, assay not named) (type A insulin receptor): 8.6%; % (potency at the receptor, assay not named) (type B insulin receptor): 2.3%

B13: GE5W-B^1(H5,10Y16L17)25-C^1-A^1(A1H8N18,21) (ligand)
chain: GEEEEEWGPEHLCGAHLVDALYLVCGDRGFYGYGSSSRRAPQTAIVDECCHRSCDLRRLENYCN
**Q.** Which results are given for B13?
**A.** % (potency at the receptor, assay not named) [1]: 2.1%; % (potency at the receptor, assay not named) [2]: 0.7%

B14: MIU-79 di-10K-SC: B1,A14-10K B^1(H5,10Y16L17R29)30-C^1des9-12-A^1(H8,K14,N18,21) (ligand)
chain: {PEG 10 kDa}-GPEHLCGAHLVDALYLVCGDRGFYFNKRTGYGSSSRRGIVDECCHRSCDLK(PEG 10 kDa)RLENYCN
modifications: ends and bridges not checked
**Q.** How did the % activity in vitro [1] turn out when B14 was run?
**A.** Its % activity in vitro is 1.7%.

**Q.** What about the % activity in vitro [2] of the same binder?
**A.** Its % activity in vitro is 0.2%.

B15: DP3(SC): B^1(H5,10Y16L17K29)29-A^1(H8,N18,21) (ligand)
chain: GPEHLCGAHLVDALYLVCGDRGFYFNKKGIVDECCHRSCDLRRLENYCN
**Q.** How did the % activity in vitro [1] turn out when B15 was run?
**A.** The % activity in vitro was 0.03%.

B16: MIU-77 mono-20K-SC: B1-20K B^1(H5,10Y16L17K29)29-A^1(H8N18,21) (ligand)
chain: GPEHLCGAHLVDALYLVCGDRGFYFNKKGIVDECCHRSCDLRRLENYCN
**Q.** How did the % activity in vitro (type A insulin receptor) turn out when B16 was run?
**A.** Its % activity in vitro is 0.1%.

— patent US20150274802A1
